The record followed here is patent US20230212543A1 (GENOVIS, published 2023).

Where no end group is shown, it is not given here.

One assay addresses T1, H8390.
T1 construct: Non-glycosylated peptide
T1 peptide: FLPLILGKLVKGLL
The experiment in a line: peptide mix on immobilised double-mutant resin, LC/MS of load, flow through and eluate (FIG. 19A).

In another assay the target is T2, H4062.
T2 construct: Non-glycosylated peptide
T2 peptide: KKLVFFA
The description is as above.

Another assay deals with T3, glycodrosocin (GD) (not fully specified (residue 11)).
T3 construct: also called glycodrosocin peptide
T3 peptide: GKPRPYSPRPTSHPRPIRV
The assay is described as above.

For the next assay, the target named is T4, H2686.
T4 construct: Non-glycosylated peptide
T4 peptide: YIYGSFK
Described as above.

Assay [1] deals with T5, BSA (bovine serum albumin) (bovine, UniProt P02769 25-607).
T5 construct: Non-glycosylated control protein
Description: protein mix on immobilised LSH205A/E206A resin, SDS-PAGE (FIG. 11B).

The target in assay [2] is T6, TNFαR (the TNFα binding part of etanercept) (human, UniProt P20333 23-257, O-glycosylated; pretreated with sialidase mixture in the binding assay).
T6 construct: also called TNFaR2; TNFaR
T6 sequence (looked up): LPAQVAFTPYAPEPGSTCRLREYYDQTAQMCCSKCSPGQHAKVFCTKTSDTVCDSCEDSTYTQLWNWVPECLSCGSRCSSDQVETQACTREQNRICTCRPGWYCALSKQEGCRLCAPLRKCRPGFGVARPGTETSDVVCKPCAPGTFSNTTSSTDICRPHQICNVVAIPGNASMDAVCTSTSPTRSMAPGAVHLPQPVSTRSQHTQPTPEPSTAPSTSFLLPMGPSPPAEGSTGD
The assay is described as above.

T5 sequence (P02769 25-607 limits assumed): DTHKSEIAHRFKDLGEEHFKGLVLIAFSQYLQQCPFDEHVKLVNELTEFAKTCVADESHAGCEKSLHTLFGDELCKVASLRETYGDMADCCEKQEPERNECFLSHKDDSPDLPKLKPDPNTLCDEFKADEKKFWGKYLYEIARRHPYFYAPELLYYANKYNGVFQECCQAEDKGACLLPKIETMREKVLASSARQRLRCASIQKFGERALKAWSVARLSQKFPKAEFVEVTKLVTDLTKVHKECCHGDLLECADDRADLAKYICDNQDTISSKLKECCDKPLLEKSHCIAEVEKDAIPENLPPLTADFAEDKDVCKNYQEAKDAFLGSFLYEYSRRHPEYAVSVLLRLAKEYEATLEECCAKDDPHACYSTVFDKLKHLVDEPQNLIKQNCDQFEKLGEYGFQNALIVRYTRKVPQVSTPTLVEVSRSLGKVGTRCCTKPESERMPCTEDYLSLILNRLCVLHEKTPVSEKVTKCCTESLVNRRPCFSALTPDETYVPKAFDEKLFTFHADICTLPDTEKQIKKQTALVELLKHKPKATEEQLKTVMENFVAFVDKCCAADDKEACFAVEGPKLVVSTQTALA

B1: LSH205A/E206A (designed binder)
chain: MEVTVPDALKDRIALKKTARQLNIVYFLGSDTEPVPDYERRLSELLLYLQQFYGKEMQRHGYGARSFGLDIKSPGRVNIIEYKAKNPAAHYPYENGGGWKAAQELDEFFKAHPDRKKSQHTLIIMPTWNDEKNGPDNPGGVPFYGMGRNCFALDYPAFDIKHLGQKTREGRLLTKWYGGMAAALGHGLNLPHNHQTASDGKKYGTALMGSGNYTFGTSPTFLTPASCALLDACEVFSVTPSQQFYEGKPEVEVGDVAISFKGDQILVSGNYKSPQTVKALNVYIQDPPYAVNQDYDAVSFSRRLGKKSGKFSMKIDKKELEGLNNNEFRISLMFILANGLHMQKHFTFHWDALQDYRDGSKSGSGHHHHHH
notes: also called LSHE206AA; Amuc1119H205A/E206A
As to B1, the binding result with H8390 is given as “no binding”; in the assay with H4062 it was “no binding”; with glycodrosocin (GD), “binds”; in the assay with H2686, “no binding”; in assay [1] it was “no binding”; in assay [2], “binds”.
